According to the DeepSol protein solubility set:

Experiment: soluble on expression in E. coli; label from the status in PepcDB or PDB records

Soluble on expression in E. coli, not soluble:
MGSDKIHHHHHHMRYVILARNLDSKAGGISVYGRNLIKKLEAKGIDVIISPKEKFSYFKWLLFDVPIFILKTDADVYHAIGIIEGILLPFIKPRAKKYLTVHDLIPLKYKGRGFRKILERFLVRLGLFSARFYDKIFAVSHLTKLDVIRFGGIDENKIEVVYQPIDDKFLKTPTSGKRHKTFNIGYISRMEAYKRHELLIKLFMKYKNPNARLYLAGTGPLFKKIQKLAEEDKRIILLGFVPDDKIVEFYDMLDVYIHPSKYEGWGLPIVEATARKKPVIIFEDAEIPREVKYLCLSIDFNIINPLISNLKYLKKVGVIKNKAWRRIYENSICH, MGSDKIHHHHHHMRYVIVGSGPAGLNAIEAIREVDKEGEILLITAEKYVGYSRPLITYLLGRKVTEEKMYYRTEDYLREMRVDIKPATRVEKVIPEEKTVVTDSGEEIRYDKLLIATGGKPFVPNIEGLTGKKGVFTFTTWEDEEKVEKYIEENDVKEAVVLGGGLIGLKTTEALMELGVKVTIVELADRILSVTFDRKASEIITEALKKEGCSVITNDTVVKVNGDDTVSSVVLKSGKEIPTKLLVIAIGVKPNVEFLKDSGIEINRGIVVNEKMETNVEGVYAAGDCTEFYDLIDGQRKTIAIWPVAVAQGRVAGYNMAGKNVRYPGGIPMNSVELAGIPTISVGHSNVEDGGYEILTFEEGNTYKKMVLKDNRLVGAILVNDIDRAGIYTGLILQKLDVSSFKDRLLDENFGLVYLPKEFRKKMLEGEIKIWLE, MGSDKIHHHHHHMSDCQAKPETNYLSTSSGKYLTAFQRKLLLQNLQKSLVESYRQRIEIMLLADEGKTQRSICQTLGCCAATARHWTHIARSGMAHQWQDCPIGRPKAVNDQYLERLKELVNSSPRAHGYAFRRWTANWLGKHLAKEFGIEVSDRHIKRLLKQMGLSTLPKPSNVEQNSTEQVQGSKILICDLQSAGIPDDSEFLPINFAKLGKHLDIHGAKYICSVAYSATVQQYSGSFSFYRGISTLSSTS, MGSDKIHHHHHHMSDLDRATLLDATGVAKSFGAVRALTDASLHVGAGEVVALMGANGAGKSTFVKILTGALRPDAGRVLIRGEVARTGSPAQARRSGLVPVYQEPSLIPDLDVADNLRLGDTPSDAVLHWMNELGINGLRFDDMISDLPLATLRILDLARALASQPDVLLLDEMTAALPTNLVENVLRVVRAQADAGCGVIYISHRFTEIAELCDSATILRDGRTVGDLQIEPGVENRCVELMLGAKLSLDKRDAGALRQNTGVPRLRASQIAVAPTVSDVSFDLYPGEVLGVVALEGQGQDEVFNVLSGHQKPTGGALQVDGTSVSFSHPADAIAAGLSYVPGDRAEALLRERSVRENIALPFSARLRDWGPLKTRHERHRVDHAIEKLQIDTRAQGEVQRLSGGNQQKVTIGRWLAHGVRTLLLFDPTRGIDVRTKRQIYPLVRELAEQGAAVLFYTSELDEIPLACDRAIVIFNGRVVNVVNAADATEEVLMRAAYGLTDVSAAS, MGSDKIHHHHHHMSDSQTVSAAVAKLYNTYPFPPEALLDEPPPGYNWRWNWLAAHNFCTGQKPQKQDIRILDAGCGTGVSTEYLVHLNPQASVVGIDLSTGALDVAKERCQRSGANRVEFHHLSLFDVEQLPGEFDLINCVGVLHHTSDPIRGIQALAQKLAPGGLMHIFVYGELGRWEIQLMQKAIALLQGDKKGDYRDGVQVGRQIFASLPENNRIVKYEKQRWSLENHKDEHFADMYVHPQEIDYNIETLFELIDASGLEFIGFSNPSFWDLERLLSKAPELVERAKELSDRQLYRLIELLDPEVTHYEFFLGRPPLVKTDWSDDKALLAAIPELNPCIEGFPSQCFFNYNYQIVNLSEPEFEFMQKCDANSTVAEILADVQLGLDEVRKLLQQQLILLAPA, MGSDKIHHHHHHMSDTITFWGVRGSIACPFPGHMAYGGNTSCVALGLGGQTVILDAGTGIRALGASAALRGVSRLALLFSHVHRDHIEGFPFFAPAHDRAVRLDIFAGPIEGASIRQLLDNLMSRPMFPLSLDQLRAQKVFHDLPAATAFTLFERIKVRTAALNHPGGATAYRFEHGGRVVCYVTDTEHRPGQPDAGLLELIAGADYVLYDSTYTDREFAAHRGWGHSTWEEGVRLCRQAGARHLVIFHHDPDHDDAAMAAIETAARAAWGGTLVAREGMTIALDSGVVTQAGR, MGSDKIHHHHHHMSEESIIVVGGGIAGLTGAALLSKEGYQVTLVEAHSQLGGCAGTFKRGSYTFDVGATQVAGLERGGIHHRLFNYLDIPLPDAKILDPGCSVTLGDGSRPINLWHDPLRWQKERQEQFPGSEIFWSLCSKIHESNWEFVERDPILPVRNFWDLSQLIRAIRPSNLLTGFLSKLTIADLLTITGCHKDRRLRSFLDLQLKLYSQEPASRTAALYGATVLQMAQSPRGLWHLHGSMQILSDLLKDSFLRDGGSLLIGHRVTKIIRKENSNVFDVKVLDRRKNLLQMKASDIVFSLPPQSLLDLIPIDGGLSTTYRESIKKLPKPSGAVVFYGALRRVDLPVDCPGHIQVFDEHFGSLFISISLENDQRAPIGMATLIASVFVDIDQWSNLDSQAYTRKKSVVSKQIRAILDHKFDLLETSWDHQELSTPRSFERWTGRPSGIVGGLGQHPDQFGPFGLSSRTPLKGLWLCGDSIYPGEGTAGVSQSALMVVRQLLESKGRHLNIPVFN, MGSDKIHHHHHHMSEFDVAVIGAGPAGSSAAIRLAQNGMNVLLVERGDPPGTKNVSGAVLWGNELAKVVPDWERSAPVERYVTRKEVAFLTEKSKIAISFSSEELQNSKSGKIIVRGKFDQWLAKKAKDAGAMLVTGVTVDRLAIDNGKVIGIQQDNDVITADAVVVAEGANPRVLINSGLRPKLSDRDVALGIKETIKLPENVINERFNVDSKSGFASEFVLGFLDDGLLSGGFLYTNKDTVSLGIVASLDRLRANGVTHSYDIMGKFEEHPFIKNLIKDGIPDEYAAHLVPEGGISSMPKLYGNGYLVAGDAAAFTFSNGMVLQGINYAITSGILAADTIIENRNNINENTLAKYVDKLRESYVLSDLYNFNGIQNVTWSDFVQKSLPTLAESVMMSLFDEKGMPKKHLRQIVTDAMKSGHMKYSDLITNGYRVIKRM, MGSDKIHHHHHHMSELNNQLWASADILRGKMDASEYKNYLLGLVFYKYLSDQELRAVYEEEQGKVAEYPSRDEQFSGLLDWYNDDAAGIREIISKKLGYFIEPDSLFYTFRKKAGEYELHISDIQNAFIELGRQGEHFAGLFDDVDLASTKLGANAQQRNVTITEVIKALDEIDLFGHDGDVIGDAYEYLIGQFAAGAGKKAGEFYTPQAVSKIISEIVAIGQEETAPFHIYDPTMGSGSLMLNIRRFVKNPGQVHYHGQELNTTTYNLARMNLILHNVEQSQMRLRNGDTLDEDWPTDEPYLFNAVVMNPPYSANWSADGKFLSDPRFEQYGKLAPKSKADFSFLLHGFYHLNEKGTMGIVLPHGVLFRGASEGVIRKTLLDMGAIEAVIGLPANIFYGTSIPTVVLILKKNRAKRDVLFIDASKAFEKQKNQNCIRSQDIRKIVDTYKKRSSSPQYAHLADYDEIVRNDYNLNIPRYVDTFEEEAPIDIVALSKEITDLNLQIKQREAEFLGMLSQLAITDETKELIEATKGIFM, MGSDKIHHHHHHMSELSQLSPQPLWDIFAKICSIPHPSYHEEALAAHILEWAKEKGIYAERDQVGNILLRKAATAGMENRKPVVLQAHLDMVPQKNNDTVHDFTTDPIQPYVDGEWLKARGTTLGADNGIGMASALAVLADPSVEHGPLEVLLTMTEEAGMDGAFGLQPNWLQGEILINTDSEEEGEIYMGCAGGIDFITRLPLVREVPPAGYQTLKLTIKGLKGGHSGGDIHLGLGNANKLLARFLFEQAEALDIRILDLNGGTLRNAIPREAFATLSLPAANVEQLKTLSQDYLAVLKNELSAVEKNLTVLVEANDSNEHPLTQDSRDRLLGLLNATPNGVIRMSDDVKGVVETSLNLGVVTMEDDHAEIICLIRSLIDSGKDAVVGTLTALGQLAGAKTSPKGGYPGWQPDAHSPVMALVRETYQKQFNKTPNIMVIHAGLECGLFKKPYPDMDMVSIGPTITGPHSPDEQVHIGSVDLYWKLLTELLKAIPPRA, MGSDKIHHHHHHMSEPLRIIHGAFGRVALLLLDRTMAVHAHRVCHVVFKIGGVDILFGVRELEHYLSDDNVLLVNAWEPHFYNHNRDAPSTVLLALYLEPQWLRKVDTRFSCSAHPKFFSQPILALGSKLAGLRADLLDLLTGRESTGSRVVEDLIVRTIIELACVGTRWKELLECQLMGSLAYDARIRQSLDEMKSRGGVALDFDEIASSVGLSRPHFFHLFRKQIGMTPATFGSMLRMEASIDSLAATDTAIHDIARHLGFDSPGNFTRFFLCQQGVTPSQYRRKVEFTTLTCS, MGSDKIHHHHHHMSFDRPEIYSAPVLQGESPNDDDNTEIIKSFKNFILEFRLDSQFIYRDQLRNNILVKNYSLTVNMEHLIGYNEDIYKKLSDEPSDIIPLFETAITQVAKRISILSRAQSANNNDKDPENTSMDTDSLLLNSLPTFQLILNSNANQIPLRDLDSEHVSKIVRLSGIIISTSVLSSRATYLSIMCRNCRHTTSITINNFNSITGNTVSLPRSCLSTIESESSMANESNIGDESTKKNCGPDPYIIIHESSKFIDQQFLKLQEIPELVPVGEMPRNLTMTCDRYLTNKVIPGTRVTIVGIYSIYNSKNGAGSGRSGGGNGGSGVAIRTPYIKILGIQSDVETSSIWNSVTMFTEEEEEEFLQLSRNPKLYEILTNSIAPSIFGNEDIKKAIVCLLMGGSKKILPDGMRLRGDINVLLLGDPGTAKSQLLKFVEKVSPIAVYTSGKGSSAAGLTASVQRDPMTREFYLEGGAMVLADGGVVCIDEFDKMRDEDRVAIHEAMEQQTISIAKAGITTVLNSRTSVLAAANPIYGRYDDLKSPGDNIDFQTTILSRFDMIFIVKDDHNEERDISIANHVINIHTGNANAMQNQQEENGSEISIEKMKRYITYCRLKCAPRLSPQAAEKLSSNFVTIRKQLLINELESTERSSIPITIRQLEAIIRITESLAKLELSPIAQERHVDEAIRLFQASTMDAASQDPIGGLNQASGTSLSEIRRFEQELKRRLPIGWSTSYQTLRREFVDTHRFSQLALDKALYALEKHETIQLRHQGQNIYRSGV, MGSDKIHHHHHHMSFELHPRYLEVHLHGRLCGFLCEAGGNTRFVPTDEYRGDNERYTLSLSITLPTEIGREATSAVFDNAFHPAIYNTGGELPPYFAGLLPEGELRKRLESTRTNPEDKDDFGVLASAGNDLPGAIVVKPADVRALPGYVRTYGVTGGADNLEIAVVEGATEGAASVSGVQNKLALSTMRKGERYTLPTKGKVSDIIAKLPAKNDDSQVFNEYVSMHLAAAAGVNIAPIQVLPMSSIDVPDLADLMGKGLHYLAVERFDRAADGGLLHAEDGCQMLGRMPNRKYAKREEYIRLLAALYRLSPKGFENVRQFFLRQAVNTLIGNSDAHLKNFSVIYRDRKLPELSPAYDIVCVAALPNFTSYGQNVAIDEIQRKETMDLYEDIADKAGIPRRIATAAVKEAVSMAHAHWPGLLEKMGASQALRDVIAERLENLPLAKVGRPTRKGA, MGSDKIHHHHHHMSFFKTPLIGLKADSFRHPLDLEATKTLKQIPGIDMLVRNWLGPMAEQVFYVENIASSILVGEKQLPDLYKLLLDACEILDIEPPQLYVRQHPAPNAYTFAVRGKQPFVVLHTSLIDILTPEEIQAVIAHELGHLKCDHSVYLTPVNLLILAAAIVPNVGTFVAQAIQAQLLEWVRCAEFTCDRAALLATQDPKVVMSVLMKLAGGSPTLAPQLNLDAFVAQARAYDDISKTELGEMVKTARTAQLTHPVPVLRAREIDRWASSTEYQSLIQSHGLKSTSKEVAPKGGWRNW, MGSDKIHHHHHHMSFYIYGILTLPAPQNLNLEGLDRQPVQIKILDDFAVIYSEAQQERYLASRRNLLSHEKVLEEIMQAGDRYLLPVQFGLLVSSWETVSQQLIRPHQEELTQLLAKLSGCREVSVKVFWDTEAEIQGLLAEHPNLKTERDKLVGQPLSMERVIQIGQVIEQGMSDRKQGIIDVFKGTLNSIAIEVVENTPQVDTMIYNSAYLIPWEAESQFSEHVESLDRQFENRLRIRYNNFTAPYNFARLRLTTSN
